According to the DeepSol protein solubility set:

Test: soluble on expression in E. coli; label from the status in PepcDB or PDB records

| Sequence | soluble on expression in E. coli |
| --- | --- |
| IVHREHHESREEVSVSSGKNNPFYFNSDRWFRTLYRNEWGHIRVLQRFDQRSKQMQNLENYRVVEFKSKPNTLLLPHHADADFLLVVLNGTAVLTLVNPDSRDSYILEQGHAQKIPAGTTFFLVNPDDNENLRIIKLAIPVNNPHRFQDFFLSSTEAQQSYLRGFSKNILEASFDSDFKEINRVLFGEERQQQQGEESREEGVIVELKREQIQELMKHAKSSSRKELSSQDEPFNLRNSKPIYSNKFGRWYEMTPEKNPQLKDLDVFISSVDMKEGALLLPHYSSKAIVIMVINEGEAKIELVGLSDQQQQKQQEESLEVQRYRAELSEDDVFVIPAAYPVAINATSNLNFFAFGINAENNRRNFLAGGKDNVMSEIPTEVLEVSFPASGKKVEKLIKKQSESHFVDAQPEQQQREEGHKGRKGSLSSILGSLY | soluble |
| MVGHSESSTDAVIEPTSEELLAEQVRVFNKMKGSTNFNRVAEDVYPVEVTKSKLVCEMVVQHQHLNSKGTLHGGQTATLTDVITARAVGVTVKDKGMASVELAVSYLLPVKVGDVLEITAHVLKVGRTMAFTDCEFRRKSDGKMSAKGKHTLAFLPNQPGISVENGTQFLEHHHHHHS | soluble |
| SNAIGLIITALPEPYWIVLHDRIVNVISSSSLTSETEWVGYPFRLFDFTACHQSYSEMSCSYTLALAHAVWHHSSIGQLSLIPKFLTEALLPVVKTEFQLLYVYHLVGPFLQRFQQERTRCMIEIGVAFYDMLLNVDQCSTHLNYMDPICDFLYHMKYMFTGDSVKEQVEKIICNLKPALKLRLRFITHISKMEPAVPPQALNSGSPAPQSNQVPASLPVTQ | soluble |
| MTIGIDKINFYVPKYYVDMAKLAEARQVDPNKFLIGIGQTEMAVSPVNQDIVSMGANAAKDIITDEDKKKIGMVIVATESAVDAAKAAAVQIHNLLGIQPFARCFEMKEACYAATPAIQLAKDYLATRPNEKVLVIATDTARYGLNSGGEPTQGAGAVAMVIAHNPSILALNEDAVAYTEDVYDFWRPTGHKYPLVDGALSKDAYIRSFQQSWNEYAKRQGKSLADFASLCFHVPFTKMGKKALESIIDNADETTQERLRSGYEDAVDYNRYVGNIYTGSLYLSLISLLENRDLQAGETIGLFSYGSGSVVEFYSATLVEGYKDHLDQAAHKALLNNRTEVSVDAYETFFKRFDDVEFDEEQDAVHEDRHIFYLSNIENNVREYHRPE | soluble |
| MNTKARKYIPLTEATYYILLSLVKPMHGYGIMQLVEEMTNGEVKLGPGTLYGNTTKLLKEKLIVEVASTDRKKCYELTPFGKEVLELEYNRLQRSVRNGNSILGE | soluble |
| MGSDKIHHHHHHMMDMTTRPTLQHFLSDTKHGPYVSLYMSWPENTSVEALRLRFKNMVKHTKSVMTETYPETDFSAYAAELEPYEQDPTFWQTCETNGFGMLTNGAQTYVTPMYEAVDEVAMVTDMPQILPLMLDEATATDFDILALNADSIQMYHNHGHQVRPISLPDDAPQTLKGTLGTEIRGGETNSVSQGGGRVTHHGHNEKSAEKASDQRRFYQAVDQYVLANHSNPHKMPLVLMGLAENVAVFREISKNHHLLPKLAVVKSPANLDFVELDDLLTPVRETLRDRRRQNFAEIIENARGNDSYTDHLEEVVQAAVAGRIAILFVQAGARIHARLEGTQIERDSINAQHANLLNDLADIVLSHGGQVELLTEAYLPVEVGAMVRYA | not soluble |
| MSLTQKRLGLIMNGITGRMGLNQHLIRSVVAIRAQGGVPLSDGTKVQLDPILIGRNADKVEGLAKQYGIERWGTDLDAALADPGNEIFFDAATTQMRPILLEKAIRAGKHVYCEKPIATNLPEAVRICRLAEEKGVKNGVVQDKLFLPGLQKLKLLRDSGFFGRMISVRGEFGYWVFEGDWGQPAQRPSWNYRSQEGGGMILDMVCHWRYVLDNLFGEVKSVSCLGATHIPSRVDERGQPYEATADDAAYATFELQDGVIAHINMSWCTRVYRDDLVTFQVDGTLGSAVAGLSDCVFQSRVGTPRPVWNPDQKQTMDFYNHWQPVPDTAVFDNGFKVQWEMFIRHVVEDAPYRFTLREGAKGVQLVECALQSWKERRWIDVPTLEASERAVLQAAEEGHHHHHH | soluble |
| MGSDKIHHHHHHMTQELTFSIKSLRFDEDYRPAANTRNTTNFANLARGQRRQENLRNTLAMINNRFNDLAHWDNPKRDRYAVELDIISVEMKIGERDTGDAFPLIEILQPSILDQTTGARIDGIAGNNFSSYVRDYDFSVLLPAHNQDTSSFSLPEGFGSLHGTLFKQFVNSDTYTARFAKPPVICISVSSSKVYHRTGNRHPILGVEYRQDAFSLTDQYFEKMGLQVRYFMPPNSVAPLAFYFLGDLLNDYTNLELIGTISTMETFQKIYRPEIYNANSAAGTIYQPSLKHQDYSATQIVYDRQERSQLAVTQGKFTQEHFIKPYGDILEQWASSHAFSSTPTQDIAHHE | not soluble |
| MLVDHLLARGATDVRALTNHPDKAQLPDSVTVVEGYLRRLGSLPAAFEGVDSLYLAPTPDTAPDALALAKQAGVRHVVDLSGPHDGHWGDVARAVEASGIEWTHLWPGEFMENAGILAPQITAGDTVREPYPTAANAPIAMDDIAEVAAVALLESGHVGASYELTGPETITRAELVRELGAALGRNIEYRQVSLDEAVDVLTPAMGEYARWY | not soluble |
| MSEPFSVPVTVRGYETDTQGHLNQSVYLNYAEHARWSLLQAAGIRQADLVARGVGPVALETTIRFQRELLAGDEVTVTCAFEWGTGKTFRIRQLVTKADGTVAAEIEAVGGLMDLGERRLVPDPRQRFKELAARPELFGLLEHHHHHH | not soluble |
| MSLDVSEGGVTVSVPTASGGGEGAADDVFFNATQELNRDLTVATLAAFREREPRAASYLDAMTASGIRGVRAANAGWDVTMADVDADAVELATSNLARNGLDGEVVARDANSLLHDHDRVLDVVDIDPFGSPMPFADAAFANARNLVCVTATDTAPLCGAHFESGVRKYSATPRNTNYHAEMGLRILLGALARTAARYDVGVTPILSHVSDHYVRTYLELDHRATDANAAVEQVGHVYHCQQCLSRDHEYGLVAAPRAECPRCGGHQVLTAGPLWLGPAHEEAFAASVREQLTREMGEASQAFHLLQTIEGELHEPTHYDQHRLYSQWGEPAVGMAEFLDQLRDAGLRASRTHFGGTTFKTDGGLAEVEAAVLEGHHHHHH | not soluble |
| MTIGQKNTNIDPRFPHHHPRPQSFWEARAKALESLLIEKGHLSSDAIERVIKHYEHELGPMNGAKVVAKAWTDPAFKQRLLEDSETVLRELGYYGLQGEHIRVVENTDTVHNVVVCTLCSCYPWPLLGLPPSWYKEPAYRARVVKEPRQVLKEFGLDLPDSVEIRVWDSSSEIRFMVLPQRPEGTEGMTEEELAKLVTRDSMIGVAKIEPPKVTVG | soluble |
| GPGSMMTEATTTPVETPIVCNIRDAAGLEGKLVTFKGWAYHIRKARKTLIFVELRDGSGYCQCVIFGKELCEPEKVKLLTRECSLEITGRLNAYAGKNHPPEIADILNLEMQVTEWKVIGESPIDLENIINKDSSIPQKMQNRHIVIRSEHTQQVLQLRSEIQWYFRKYYHDNHFTEIQPPTIVKTQCEGGSTLFKLQYFNEPAYLTQSSQLYLESVIASLGKSFCMLSSYRAEQSRTVRHLAEYLHLEAELPFISFEDLLNHLEDLVCTVIDNVMAVHGDKIRKMNPHLKLPTRPFKRMTYADAIKYCNDHGILNKDKPFEYGEDISEKPERQMTDEIGCPIFMIHFPSKMKAFYMSKVPGHPDLTESVDLLMPGVGEIVGGSMRIWNYDELMGAYKANGLNPDPYYWYTQQRKYGSCPHGGYGLGVERLVMWLLGEDHIRKVCLYPRYLERCEP | soluble |
| GSHMASMTGGQQMGRGSMVKVLTACGNGMGSSMVIKMKVENALRQLGVSDIESASCSVGEAKGLASNYDIVVASNHLIHELDGRTNGKLIGLDNLMDDNEIKTKLEEALK | soluble |
| MGSDKIHHHHHHMQERGLVGLGLRREMLSEFCQQLPSAIDFLEVAPENWMTLGGKYGKQFRQLTEQHTFFCHGLSLSIGSPEPLDLEFVRRIKAFMDLHQIDVYSEHLSYCSGAGHLYDLMPIPFTEAAVKHVARRVKQVEDILYRPLILENVSFYAAPSAQMTELAFLTAVLEEADCKLLLDVNNIYVNSINHQYDALAFLKAMPTERIAYLHIAGHFKESEELLIDTHGSDINAPVWALLDSCYAEHGVLPTLLERDFNLPATAHLLDEINQIHAYQARAKSNLDKRIA | not soluble |
